# According to patent US8138140B2, “Self-assembling peptide amphiphiles and related methods for growth factor delivery” (Northwestern University, priority 2003, dated 2012):
# Ends that are not written are not given here. Peptide text beside a SMILES is read from it. * marks the point of attachment. Palmitoyl = CCCCCCCCCCCCCCCC(=O)*; NH(CH2)11CH3 = CCCCCCCCCCCCN*
# System: laminin-5
# Test: Phage display binding sequences
# Parameters: key: * denotes the strongest binders
# Details: not given
# Method: (§1) Numerous binding sequences were determined for vascular endothelial growth factor (VEGF), both with 7- and 12-mer phage display kit, basic fibroblast growth factor (FGF-2), neurotrophin-3 (NT-3) and laminin-5; * denotes the strongest binders: […]
row,strongest binders,Compound
1,RYHPHLH*,RYHPHLH

# System: mesenchymal stem cells
# Test: Mesenchymal stem cells cultured in PA gels with TGF-β1, lineage markers
# Format: cell-based, Human
# Details: TGF-β1 up to 20 ng/ml, 10 days
Compound,Collagen II expression,α-smooth muscle actin expression
Asp(CONHC12)-Val-Val-Val-Ala-Ala-Ala-Lys-Lys-Lys-Ser-Gly-Gly-G-ly-Leu-Pro-Leu-Gly-Gln-Ser-His-NH2 [PA 10],higher for the binding gels,higher in the binding gels than in the nonbinding gels

# System: vascular endothelial growth factor (VEGF)
# Test: Phage display binding sequences (12-mer kit)
# Parameters: key: * denotes the strongest binders
# Details: 12-mer phage display kit
# Method: as §1
row,strongest binders,Compound
1,PLTPSALLPIFE*,PLTPSALLPIFE
2,PTPLKVRLHSYN*,PTPLKVRLHSYN
3,VSILSTIPNSMT*,VSILSTIPNSMT

# Molecular target: T1, rh-TGF-β1 (Homo sapiens, UniProt P01137)
# T1 construct: purchased Peprotech
# T1 sequence (P01137 279-390 limits assumed): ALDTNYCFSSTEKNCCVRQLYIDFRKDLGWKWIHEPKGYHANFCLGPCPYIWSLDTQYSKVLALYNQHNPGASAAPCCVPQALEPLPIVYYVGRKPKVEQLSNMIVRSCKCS
# Test: ELISA screening of phage display clones, relative binding strengths
# Parameters: key to relative binding strength of selected clone (numeric coding): highest (1); 2: in decreasing binding strength from highest (1) to lowest (4); 3: in decreasing binding strength from highest (1) to lowest (4); lowest (4)
# Details: TGF-β1 coated plates, ELISA
# From the text: (§2) Phage display is typically used to find receptor-blocking peptides, i.e. sequences with high binding constants. To transfer a growth factor from the PA binding site to the cell receptor, an extremely high binding constant is not required and might even be unfavorable. Therefore, the 7-mer commercial phage library was elected over the […], aiming at intermediate binding strengths. Growth factors were physisorbed onto 96-well plates and subsequently exposed to the phage library. After incubation at room temperature for 60 minutes, the unbound phage was removed by rinsing with detergent solution. Bound phage was subsequently eluted by incubating with a growth factor solution for 60 minutes. The recovered phages were amplified for 4 h in E Coli at 37° C. and the panning was repeated two more times. In subsequent panning rounds, the stringency was increased by raising the detergent concentration and reducing the exposure time to the library. The final phage population was plated and the DNA of 10 clones of colonies containing only one phage type were sequenced. Next, ELISA screening was used to test for false positives and determine relative binding strengths of the selected clones. […] (See Table 1, below.)
# (§3) Phage display was performed with the Ph.D. 7 kit (New England […]). Fifty microliters of diluted M13-phage library (containing 2×10^9 phages and all possible 7-mer sequences) were added to 96-well microtiter plates, which had been exposed to 50 μl 10 μg/ml growth factor (peprotech) solution for 18 h at 0° C. The plates were blocked for 1 h then incubated at room temperature for 60 minutes with gentle agitation. Unbound phage was removed by rinsing with TBS/Tween-20 (0.1% v/v Tween-20). Bound phage was subsequently eluted by incubating with 50 μl growth factor solution for 60 minutes. The presence of binding phage was determined by serial dilution of the phages and subsequent plating with E. Coli on agar plates. The number of plaques formed can be related to the number of phages in the original mixture. The phages were subsequently amplified for 4 h in E. Coli at 37° C. In subsequent panning rounds, the concentration of Tween-20 was raised to 0.5% and the binding and elution times were decreased and increased, respectively, to increase the stringency of the selection process. After three rounds of panning, the recovered phage mixture is diluted and plated with bacteria on agar. Subsequently, plaques are isolated containing a single DNA sequence. After purification, ten clones were sequenced. Next, ELISA screening was used to eliminate false positives and determine relative binding strengths of the selected clones. Each clone was incubated for 1 h on growth factor coated microtiter plates, the plates were rinsed with TBS/Tween-20 and subsequently HRP-conjugated anti-M13 antibody (Amersham Biosciences) was incubated for 1 h. After addition of ABTS, the absorbance at 450 nm was measured after 30 minutes to determine the relative binding strengths of the isolated clones. The strongest binder was subsequently selected.
row,relative binding strength of selected clone (numeric coding),Compound
1,LPSPIQK (2),LPSPIQK
2,AWKSVTA (3),AWKSVTA
3,RTTSPTA (3),RTTSPTA
4,GKYPPTS (3),GKYPPTS
5,VYRHLPT (2),VYRHLPT
6,LRNYSHS (3),LRNYSHS
7,PAPRWIH (3),PAPRWIH
8,RVSTWDT (3),RVSTWDT
9,LPLGNSH (1),LPLGNSH

# Same assay, conditions: phage display and ELISA screening
row,binding to TGF-β1 (in words),Compound
1,best binding epitope,LPLGNSH

# Molecular target: T2, rh-BMP-2 (Homo sapiens, UniProt P12643)
# T2 construct: purchased Peprotech
# T2 sequence (P12643 283-396): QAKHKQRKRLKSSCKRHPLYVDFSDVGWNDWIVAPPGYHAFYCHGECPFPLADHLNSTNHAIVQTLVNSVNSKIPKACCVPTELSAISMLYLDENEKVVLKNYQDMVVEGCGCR
# Test: as above
# Parameters: key to relative binding strength of selected clone (numeric coding): highest (1); 2: in decreasing binding strength from highest (1) to lowest (4); 3: in decreasing binding strength from highest (1) to lowest (4); lowest (4)
# Details: BMP-2 coated plates, ELISA
# From the text: as §2, §3
row,relative binding strength of selected clone (numeric coding),Compound
1,PIQPDER (2),PIQPDER
2,DVSPAYH (3),DVSPAYH
3,WPALFTH (3),WPALFTH
4,KVPPANT (3),KVPPANT
5,PFDPPVR (2),PFDPPVR
6,KQALTQT (3),KQALTQT
7,LHYPFMT (3),LHYPFMT
8,PGPTVQG (2),PGPTVQG
9,YPVHPST (1),YPVHPST
10,QQTQAQH (4),QQTQAQH

# Same assay, conditions: phage display and ELISA screening
row,binding to BMP-2 (in words),Compound
1,best binding epitope,YPVHPST

# System: not listed separately
# Test: Acid-base (pKa) titrations of PA aggregates
# Details: 3 mM, aggregated state
# Method: Acid-Base titrations. pKa titrations were preformed on PAs 1-4 in the range of pH 2-10 with a Fisher Accumet pH meter at a concentration of 3.5 mg/mL in 100 mM KCl. For the acidic PAs 2 and 4, 0.1N KOH was added in 1-5 μL increments, starting at low pH, whereas for the basic PAs 1 and 3, 0.1N HCl was added in 1-5 μL increments, starting at a high pH.
# pKa titrations of aggregates of molecules 1-4 were carried out at a concentration of 3 mM. All titrations were started at a pH where the molecules were already in their aggregated state in order to avoid kinetic effects due to self-assembly.
row,Compound,apparent pKa of aggregates (titration curve)
1,CCCCCCCCCCCCCCCC(=O)N[C@H](C(=O)N[C@H](C(=O)N[C@H](C(=O)N[C@@H](C)C(=O)N[C@@H](C)C(=O)N[C@@H](C)C(=O)N[C@@H](CCC(=O)O)C(=O)N[C@@H](CCC(=O)O)C(=O)N[C@@H](CCC(=O)O)C(=O)O)C(C)C)C(C)C)C(C)C [PA 2] (Palmitoyl-VVVAAAEEE-OH),complex curves with transitions occurring over wide ranges
2,Asp(CONHC12)-Val-Val-Val-Ala-Ala-Ala-Glu-Glu-Glu-NH2 (D(NH(CH2)11CH3)VVVAAAEEE-NH2; N-terminus assumed; SMILES CCCCCCCCCCCCNC(=O)C[C@H](N)C(=O)N[C@H](C(=O)N[C@H](C(=O)N[C@H](C(=O)N[C@@H](C)C(=O)N[C@@H](C)C(=O)N[C@@H](C)C(=O)N[C@@H](CCC(=O)O)C(=O)N[C@@H](CCC(=O)O)C(=O)N[C@@H](CCC(=O)O)C(N)=O)C(C)C)C(C)C)C(C)C) [PA 4],complex curves with transitions occurring over wide ranges
